From US20240261333A1, “NOVEL TARGETS FOR ENHANCING ANTI-TUMOR IMMUNITY” (THE BROAD INSTITUTE, INC., priority 2021, published 2024)

Legend:
CAPRIN1 (human) = CAPRIN1 (human) (UniProt Q14444); assay: IgG control IP from lysate of cells overexpressing C-FLAG B3GNT2, then mass spectrometry
TIMP3 (human) = TIMP3 (human) (UniProt P35625); assay: as above
SRP14 (human) = SRP14 (human) (UniProt P37108); assay: as above
KHDRBS1 (human) = KHDRBS1 (human) (UniProt Q07666); assay: as above
MAGED2 (human) = MAGED2 (human) (UniProt Q9UNF1); assay: as above
Sequence of MAGED2 (human) (Q9UNF1 2-606 limits assumed): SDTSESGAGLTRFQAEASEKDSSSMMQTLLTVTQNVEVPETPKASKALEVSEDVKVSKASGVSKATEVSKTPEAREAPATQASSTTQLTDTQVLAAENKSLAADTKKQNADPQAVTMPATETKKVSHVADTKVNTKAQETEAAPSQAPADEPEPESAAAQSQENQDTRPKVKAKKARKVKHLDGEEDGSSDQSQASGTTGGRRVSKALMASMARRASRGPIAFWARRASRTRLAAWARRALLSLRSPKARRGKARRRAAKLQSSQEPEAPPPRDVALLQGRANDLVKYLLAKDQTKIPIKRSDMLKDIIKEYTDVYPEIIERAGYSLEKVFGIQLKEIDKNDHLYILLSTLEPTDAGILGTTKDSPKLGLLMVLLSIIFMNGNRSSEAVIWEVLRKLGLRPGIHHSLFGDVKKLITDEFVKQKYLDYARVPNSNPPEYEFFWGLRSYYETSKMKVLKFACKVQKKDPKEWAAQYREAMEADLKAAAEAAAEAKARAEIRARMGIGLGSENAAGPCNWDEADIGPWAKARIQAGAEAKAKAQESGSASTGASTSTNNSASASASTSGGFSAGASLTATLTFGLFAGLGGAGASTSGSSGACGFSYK

CASC3 (human) = CASC3 (human) (UniProt O15234); assay: as above
VIM (human) = VIM (human) (UniProt P08670); assay: as above
CPSF6 (human) = CPSF6 (human) (UniProt Q16630); assay: as above
ANXA2 (human) = ANXA2 (human) (UniProt P07355); assay: as above
TCP1 (human) = TCP1 (human) (UniProt P17987); assay: as above
TFAM (human) = TFAM (human) (UniProt Q00059); assay: as above
SUPT16H (human) = SUPT16H (human) (UniProt Q9Y5B9); assay: as above
EIF3I (human) = EIF3I (human) (UniProt Q13347); assay: as above
Sequence of EIF3I (human) (Q13347 whole entry): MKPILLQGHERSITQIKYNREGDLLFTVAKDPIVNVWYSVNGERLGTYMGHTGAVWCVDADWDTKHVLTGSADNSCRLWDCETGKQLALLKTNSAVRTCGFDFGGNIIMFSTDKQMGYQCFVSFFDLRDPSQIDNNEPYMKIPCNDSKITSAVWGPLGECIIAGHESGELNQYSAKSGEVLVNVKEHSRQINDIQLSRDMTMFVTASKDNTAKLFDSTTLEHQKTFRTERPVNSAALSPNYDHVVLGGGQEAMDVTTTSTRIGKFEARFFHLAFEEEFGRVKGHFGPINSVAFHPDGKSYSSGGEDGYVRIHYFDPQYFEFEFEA

TAF15 (human) = TAF15 (human) (UniProt Q92804); assay: as above
PABPC1 (human) = PABPC1 (human) (UniProt P11940); assay: as above
RPL13 (human) = RPL13 (human) (UniProt P26373); assay: co-IP, IgG control, lysate of cells with C-FLAG B3GNT2; mass spectrometry
CAT (human) = CAT (human) (UniProt P04040); assay: as above
SAMM50 (human) = SAMM50 (human) (UniProt Q9Y512); assay: as above
Sequence of SAMM50 (human) (Q9Y512 whole entry): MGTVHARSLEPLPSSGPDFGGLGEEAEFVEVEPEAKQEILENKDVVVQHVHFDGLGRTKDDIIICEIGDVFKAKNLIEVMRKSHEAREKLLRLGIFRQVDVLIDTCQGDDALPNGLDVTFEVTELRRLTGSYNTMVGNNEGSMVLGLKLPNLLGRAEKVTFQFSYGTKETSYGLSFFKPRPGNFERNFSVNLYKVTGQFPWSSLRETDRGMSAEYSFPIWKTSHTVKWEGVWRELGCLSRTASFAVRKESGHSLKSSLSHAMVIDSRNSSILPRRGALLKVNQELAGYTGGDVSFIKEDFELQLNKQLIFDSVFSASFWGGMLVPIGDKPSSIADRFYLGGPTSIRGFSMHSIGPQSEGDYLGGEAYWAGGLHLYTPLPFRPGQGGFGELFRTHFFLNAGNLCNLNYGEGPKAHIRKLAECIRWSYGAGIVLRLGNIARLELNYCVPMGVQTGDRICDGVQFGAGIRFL

RPS3 (human) = RPS3 (human) (UniProt P23396); assay: as above
RPS28 (human) = RPS28 (human) (UniProt P62857); assay: as above
DPM1 = DPM1 (UniProt O60762); assay: co-IP, anti-FLAG, lysate of N-FLAG B3GNT2 cells, mass spectrometry
CNP = CNP (UniProt P09543); assay: as above
CALM2 = CALM2 (UniProt P0DP24); assay: as above
HSPA5 = HSPA5 (UniProt P11021); assay: as above
ALDOA = ALDOA (UniProt P04075); assay: as above
SLC25A1 = SLC25A1 (UniProt P53007); assay: as above
HSPH1 = HSPH1 (UniProt Q92598); assay: as above
LRPPRC = LRPPRC (UniProt P42704); assay: as above
PSMA1 = PSMA1 (UniProt P25786); assay: as above
TRIM28 = TRIM28 (UniProt Q13263); assay: as above
PRR4 = PRR4 (UniProt Q16378); assay: as above
Sequence of PRR4 (Q16378 17-134 limits assumed): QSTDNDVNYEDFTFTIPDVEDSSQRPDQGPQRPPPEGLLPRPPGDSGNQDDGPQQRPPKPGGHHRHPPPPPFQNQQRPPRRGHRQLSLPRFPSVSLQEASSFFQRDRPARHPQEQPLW

SLC25A3 = SLC25A3 (UniProt Q00325); assay: as above
Sequence of SLC25A3 (Q00325 50-362 limits assumed): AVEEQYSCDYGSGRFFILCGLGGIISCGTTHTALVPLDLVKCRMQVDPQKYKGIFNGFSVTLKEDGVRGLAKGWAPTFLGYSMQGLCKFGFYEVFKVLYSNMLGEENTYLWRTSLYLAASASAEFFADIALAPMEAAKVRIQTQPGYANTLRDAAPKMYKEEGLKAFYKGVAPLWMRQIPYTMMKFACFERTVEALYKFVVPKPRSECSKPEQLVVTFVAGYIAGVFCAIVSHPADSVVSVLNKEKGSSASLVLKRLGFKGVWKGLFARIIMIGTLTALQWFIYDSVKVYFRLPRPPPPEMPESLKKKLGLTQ

RPL29 = RPL29 (UniProt P47914); assay: as above
CSPG4 = CSPG4 (UniProt Q6UVK1); assay: as above
SEC16A = SEC16A (UniProt O15027); assay: as above
Sequence of SEC16A (O15027 other isoform, or with tags, fused parts or gaps limits assumed): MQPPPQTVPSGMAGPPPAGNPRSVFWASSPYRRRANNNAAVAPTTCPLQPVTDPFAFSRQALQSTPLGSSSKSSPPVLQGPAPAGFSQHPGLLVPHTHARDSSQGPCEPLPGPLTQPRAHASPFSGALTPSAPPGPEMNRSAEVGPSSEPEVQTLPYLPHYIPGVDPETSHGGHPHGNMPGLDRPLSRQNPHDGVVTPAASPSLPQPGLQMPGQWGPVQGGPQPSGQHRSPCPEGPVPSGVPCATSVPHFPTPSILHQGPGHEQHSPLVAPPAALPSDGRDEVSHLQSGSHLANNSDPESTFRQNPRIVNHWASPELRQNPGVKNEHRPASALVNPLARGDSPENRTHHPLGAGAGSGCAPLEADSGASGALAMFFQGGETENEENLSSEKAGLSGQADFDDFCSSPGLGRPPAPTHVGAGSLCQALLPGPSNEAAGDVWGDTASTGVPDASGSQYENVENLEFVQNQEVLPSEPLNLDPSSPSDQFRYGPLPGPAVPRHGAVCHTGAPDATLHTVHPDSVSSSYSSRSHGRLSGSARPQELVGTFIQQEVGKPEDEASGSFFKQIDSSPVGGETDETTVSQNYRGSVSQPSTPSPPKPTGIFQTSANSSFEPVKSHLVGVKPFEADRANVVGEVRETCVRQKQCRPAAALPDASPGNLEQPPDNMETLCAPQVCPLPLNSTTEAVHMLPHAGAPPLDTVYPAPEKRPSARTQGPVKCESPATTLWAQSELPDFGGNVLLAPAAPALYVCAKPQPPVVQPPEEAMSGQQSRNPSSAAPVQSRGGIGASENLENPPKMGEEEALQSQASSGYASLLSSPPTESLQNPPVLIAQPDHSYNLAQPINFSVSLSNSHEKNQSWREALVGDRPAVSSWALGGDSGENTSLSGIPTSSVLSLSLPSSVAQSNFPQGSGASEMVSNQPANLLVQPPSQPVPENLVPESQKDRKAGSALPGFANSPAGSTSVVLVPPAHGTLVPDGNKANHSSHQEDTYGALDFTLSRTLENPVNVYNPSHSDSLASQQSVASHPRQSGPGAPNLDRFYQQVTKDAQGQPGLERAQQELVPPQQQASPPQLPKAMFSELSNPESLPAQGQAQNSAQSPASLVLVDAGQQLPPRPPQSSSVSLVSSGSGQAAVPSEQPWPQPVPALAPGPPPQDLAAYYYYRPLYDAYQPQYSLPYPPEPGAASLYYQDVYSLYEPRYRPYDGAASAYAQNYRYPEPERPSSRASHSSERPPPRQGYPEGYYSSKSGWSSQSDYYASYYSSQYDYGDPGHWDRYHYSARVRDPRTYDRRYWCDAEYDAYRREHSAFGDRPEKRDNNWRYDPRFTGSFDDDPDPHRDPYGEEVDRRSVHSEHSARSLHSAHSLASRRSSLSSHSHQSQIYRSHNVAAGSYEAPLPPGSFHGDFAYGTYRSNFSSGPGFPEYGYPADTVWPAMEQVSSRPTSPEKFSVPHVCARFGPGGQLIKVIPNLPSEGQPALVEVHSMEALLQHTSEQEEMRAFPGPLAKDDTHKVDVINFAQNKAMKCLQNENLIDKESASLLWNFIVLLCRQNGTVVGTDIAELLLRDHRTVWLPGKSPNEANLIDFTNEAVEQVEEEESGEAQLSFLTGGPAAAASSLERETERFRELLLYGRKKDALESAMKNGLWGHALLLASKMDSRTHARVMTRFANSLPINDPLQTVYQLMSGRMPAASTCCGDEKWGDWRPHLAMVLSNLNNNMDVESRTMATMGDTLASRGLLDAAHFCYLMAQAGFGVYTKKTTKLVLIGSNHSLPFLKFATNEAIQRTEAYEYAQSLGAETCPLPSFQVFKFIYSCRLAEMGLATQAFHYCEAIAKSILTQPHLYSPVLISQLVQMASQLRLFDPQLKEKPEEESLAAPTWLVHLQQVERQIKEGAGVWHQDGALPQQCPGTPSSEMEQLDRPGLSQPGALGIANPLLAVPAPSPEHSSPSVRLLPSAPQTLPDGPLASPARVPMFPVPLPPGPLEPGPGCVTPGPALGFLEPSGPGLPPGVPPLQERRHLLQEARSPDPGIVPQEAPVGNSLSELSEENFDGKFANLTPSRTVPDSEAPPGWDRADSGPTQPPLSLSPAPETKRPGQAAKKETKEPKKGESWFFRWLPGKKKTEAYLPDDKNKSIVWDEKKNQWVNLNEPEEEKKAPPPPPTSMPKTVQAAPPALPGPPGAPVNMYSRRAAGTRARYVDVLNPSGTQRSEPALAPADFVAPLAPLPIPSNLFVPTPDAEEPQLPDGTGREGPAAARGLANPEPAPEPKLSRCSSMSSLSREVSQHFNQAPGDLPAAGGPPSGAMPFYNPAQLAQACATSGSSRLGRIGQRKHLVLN

RPL18A = RPL18A (UniProt Q02543); assay: as above

Sequence of CAPRIN1 (human) (Q14444 2-709 limits assumed): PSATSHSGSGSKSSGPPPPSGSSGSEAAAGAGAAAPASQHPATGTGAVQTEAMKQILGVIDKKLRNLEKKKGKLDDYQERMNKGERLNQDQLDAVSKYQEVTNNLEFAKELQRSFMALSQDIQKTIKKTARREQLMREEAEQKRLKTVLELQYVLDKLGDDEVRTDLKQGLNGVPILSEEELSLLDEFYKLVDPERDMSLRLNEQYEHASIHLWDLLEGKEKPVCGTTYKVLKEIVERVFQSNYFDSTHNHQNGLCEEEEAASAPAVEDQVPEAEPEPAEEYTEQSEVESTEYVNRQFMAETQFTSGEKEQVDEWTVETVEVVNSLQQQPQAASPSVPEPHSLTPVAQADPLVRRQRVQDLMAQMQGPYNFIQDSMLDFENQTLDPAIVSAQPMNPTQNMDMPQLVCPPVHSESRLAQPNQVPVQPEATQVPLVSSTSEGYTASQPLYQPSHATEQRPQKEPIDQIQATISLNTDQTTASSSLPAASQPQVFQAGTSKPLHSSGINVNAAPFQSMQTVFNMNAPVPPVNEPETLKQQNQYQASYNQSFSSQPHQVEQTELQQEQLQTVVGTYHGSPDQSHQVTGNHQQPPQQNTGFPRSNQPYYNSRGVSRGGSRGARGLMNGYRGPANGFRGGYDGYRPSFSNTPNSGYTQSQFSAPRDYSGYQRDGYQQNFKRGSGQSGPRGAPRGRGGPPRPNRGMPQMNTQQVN
Sequence of SRP14 (human) (P37108 2-136 limits assumed): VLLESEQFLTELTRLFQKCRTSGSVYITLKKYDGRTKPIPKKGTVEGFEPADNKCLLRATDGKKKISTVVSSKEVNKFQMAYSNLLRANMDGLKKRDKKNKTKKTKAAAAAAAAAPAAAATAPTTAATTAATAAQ

## IgG control (Millipore Sigma 12-371) (antibody)
CAPRIN1 (human)
  co-IP mass spectrometry count (C-term IgG): 6
TIMP3 (human)
  co-IP mass spectrometry count (C-term IgG): 0
SRP14 (human)
  co-IP mass spectrometry count (C-term IgG): 0
KHDRBS1 (human)
  co-IP mass spectrometry count (C-term IgG): 7
MAGED2 (human)
  co-IP mass spectrometry count (C-term IgG): 0
CASC3 (human)
  co-IP mass spectrometry count (C-term IgG): 0
VIM (human)
  co-IP mass spectrometry count (C-term IgG): 337
CPSF6 (human)
  co-IP mass spectrometry count (C-term IgG): 33
ANXA2 (human)
  co-IP mass spectrometry count (C-term IgG): 16
TCP1 (human)
  co-IP mass spectrometry count (C-term IgG): 0
TFAM (human)
  co-IP mass spectrometry count (C-term IgG): 0
SUPT16H (human)
  co-IP mass spectrometry count (C-term IgG): 0
EIF3I (human)
  co-IP mass spectrometry count (C-term IgG): 0
TAF15 (human)
  co-IP mass spectrometry count (C-term IgG): 4
PABPC1 (human)
  co-IP mass spectrometry count (C-term IgG): 30
RPL13 (human)
  co-IP mass spectrometry count: 8
CAT (human)
  co-IP mass spectrometry count: 3
SAMM50 (human)
  co-IP mass spectrometry count: 0
RPS3 (human)
  co-IP mass spectrometry count: 17
RPS28 (human)
  co-IP mass spectrometry count: 0

## N-terminal FLAG tagged B3GNT2 (from UniProt Q9NY97 1-397) (enzyme)
DPM1
  co-IP/MS count: 4
CNP
  co-IP/MS count: 5
CALM2
  co-IP/MS count: 0
HSPA5
  co-IP/MS count: 70
ALDOA
  co-IP/MS count: 2
SLC25A1
  co-IP/MS count: 5
HSPH1
  co-IP/MS count: 8
LRPPRC
  co-IP/MS count: 2
PSMA1
  co-IP/MS count: 2
TRIM28
  co-IP/MS count: 4
PRR4
  co-IP/MS count: 2
SLC25A3
  co-IP/MS count: 4
RPL29
  co-IP/MS count: 4
CSPG4
  co-IP/MS count: 2
SEC16A
  co-IP/MS count: 2
RPL18A
  co-IP/MS count: 3
